Laboratory results published in the DeepSol protein solubility set.

Assay: soluble on expression in E. coli; label from the status in PepcDB or PDB records

Sequence	soluble on expression in E. coli
MSLEVPLLEVLLYTDGSVTRILERFFEEVTIDPLETRKLKVEGREARLLGVPDGDTVYVRRVVIKVDGRPAILATSLARPDNLPGRLRRLVLQSRKPLGKMIEELRLETRREILRVEEARPSPEDEEILDVSVPKIPWREYLVYHRRTPMLLIRERFNPEVLGREGEGHHHHHH	not soluble
MSLDLEYTPEQQQLRAEIRATLQTVMTPERVAAVSEQMDGGPAVRECVRALAAANLLGVGWPKEYGGRGFSAIEQFIFAEEARRVSAPIPLVTLNTAGPTLMHYGTDEQKRRFLPAILDGTVEFAIGYSEPGAGSDLASVHTTAVRVGDEYVINGQKMFTSGAAYADYIWLAVRTDPDAKKHKGISILIVPTSSPGFSWQPLHTMPGISTFYTFYDDVRVPVSALVGAENQGWQLITTQLNFERAALGNLGALEPLFDKTLDWALSTELDGGRVIDQPWVRSALARVEAQVAAYKLVNLRVNAAMTKGALNMGEASAAKVFGTELTQQVARELLEVLDGNGVRRGAEAPLRGALESAYRQAVINTFGGGANEIQRDIIAMAALGMPRAEGHHHHHH	not soluble
MGSDKIHHHHHHMLNRLRAFRERGWREVDAPTYAQAWQRFGGSVATHPLVVEQLAEMAGIPVRYLGWESAGELVAAIPTWGRHLALSKDVLKRRGKKGLYDLGNAELILPVAGDARIALRHAGRYLSALHERNIVTLRPQTEQLAFARAPEDFSKKFRYNQRREVRLVEEAGGQVRQADSFAPAEFAAIYLELFQRRWGFPATGAERMAEVFERLRELLRGSVLLLNDQPIAVQVLYRAEAPGWLSVEYINGGVDPQTREFSPGSVLSYLNTQAAWEDARALGKPLRYSFGRADREYKDRWCHPSPVFQV	not soluble
MIEWQDLHHSELSVSQLYALLQLRCAVFVVEQNCPYQDIDGDDLTGDNRHILGWKNDELVAYARILKSDDDLEPVVIGRVIVSEALRGEKVGQQLMSKTLETCTHHWPDKPVYLGAQAHLQNFYQSFGFIPVTEVYEEDGIPHIGMAREVIQA	soluble
MSLGQTTLACSFRSLTNPYYTAFNKGAQSFAKSVGLPYVPLTTEGSSEKGIADIRALLQKTGGNLVLNVDPNDSADARVIVEACSKAGAYVTTIWNKPKDLHPWDYNPNYVAHLSYDGVAYGEETATQLFKSMGGKGGVVALGGIFSNVPAIERKAGLDAALKKFPGIQLLDFQVADWNSQKAFPIMQAWMTRFNSKIKGVWAANDDMALGAIEALRAEGLAGQIPVTGMDGTQPGLVAIKSGELVASVDWDPFWLGGIGLSMGLQAKEKKIDLATLPKDRRESFCTATFVTKTNVQDVIARAASPKAEWNNLYARVAGPVVYREGHHHHHH	soluble
MNSEHPMTDRVVYRSLMADNLRWDALQLRDGDIIISAPSKSGLTWTQRLVSLLVFDGPDLPGPLSTVSPWLDQTIRPIEEVVATLDAQQHRRFIKTHTPLDGLVLDDRVSYICVGRDPRDAAVSMLYQSANMNEDRMRILHEAVVPFHERIAPPFAELGHARSPTEEFRDWMEGPNQPPPGIGFTHLKGIGTLANILHQLGTVWVRRHLPNVALFHYADYQADLAGELLRPARVLGIAATRDRARDLAQYATLDAMRSRASEIAPNTTDGIWHSDERFFRRGGSGDWQQFFTEAEHLRYYHRINQLAPPDLLAWAHEGRRGYDPAN	soluble
MKEANLLIDLRGEPGINCNGFCKFCYFRKVNKNNPQPFGCRYCQFTVGCDYCMYSVREINGDFIPLPFALMELQSSLLFKRYSKVNLTAGGDVSCYPQLEELCKAINNIGLKIHLGYTSGKGFDNVEIAKNLVDYGVDEVTFSVFSTNPKLRKEWMNDKNAETALKCLRYFCENCEVHCAIIVIPGVNDGEELKKTVSDLVDWGANAVILMRFANSEEQGLILGNAPLIEGIKPHSVEEFKNIVDEIHNEFGDYIRVTGTPLHDPVAGTPFALAKEENSHILERLKDKINGEATIITGNVAYPFLKKIFDETSVNVVKVNKDIADLITAKDLEKLDLKDVKETVFIPPKAFVHDRVAEEILRRDGVDRIVVRGVEQLTLDGEVSGIYTREEALKFEIEAFEELIGMINFFGMKKQ	not soluble
MPELDESASFAELLEAHAGGTRNVRPGDRISAAIVAITDDSVFVATGSKVDGVIDRRELEEADGSLPYAVGDRVDLYVTAVNGQEIRLSKGLSGQGGAAVLEEARDSGVPVEGRVTGTCKGGYNVDVLRKRAFCPGSQIDLHQLEDAESVVGQTFQFLVTRVEQHGRNIVVSRRALLERERDAALATFLEGVKEGDVLEGTVTRLAPFGAFVEIAPGVDGMVLEHHHHHH	not soluble
